One assay relates to IL-6R. The assay can be described thus: Co-immunoprecipitation of CIRP and IL-6R. The settings on record: Co-IP, n = 3. The class given is binding.
The test system of assay [1] is microglia. The assay can be described thus: Microglial phagocytosis of CFSE-labeled RBCs. The class given is cell-based, mouse. As to conditions: CFSE-labeled erythrocytes 10:1, 4 h; TCC pretreatment then CIRP; n = 6. An excerpt: (§1) Primary cortical neurons were isolated from embryonic day 16–18 (E16–E18) C57BL/6 mouse embryos as previously described, and cultured in Neurobasal medium supplemented with B27 and GlutaMAX (Gibco).Primary microglial cells were isolated from the cortices of neonatal (day 1) C57BL/6J mice. After disinfection with 75 % ethanol, the skin and skull were removed, and the brains were placed in ice-cold HBSS. The meninges were peeled off, the cortex was collected, and the hippocampus was discarded. Tissues were digested with 0.25 % trypsin at 37 °C for 12 min, centrifuged at 1200 rpm for 5 min, and resuspended in complete medium. The suspension was transferred to a T75 flask with 15 mL of complete medium. After 14 days, microglial cells were harvested by shaking the flask at 270–280 rpm for 30 min, and the supernatant was collected. […]
The functional characteristics of microglial cells encompass not only the release of inflammatory cytokines but also their phagocytic activity. […] RBCs were labeled with either 0.5 μM or 5 μM CFSE, and immunofluorescence analysis determined that 5 μM CFSE was the optimal concentration for labeling (Fig. 7G). […]
RBCs were isolated via density gradient centrifugation and labeled with CFSE before being stereotactically injected into the right striatum. […] Cell viability was assessed using a Fixable Viability Dye, and flow cytometric analysis was subsequently performed. […]

Another assay has as its system neurons. Description: Neurons co-cultured with CIRP-treated microglial supernatant (CCK-8, immunofluorescence). The format is cell-based, mouse. As to the method: Brain tissues were fixed in paraformaldehyde, dehydrated, and sectioned at 30 µm using a microtome (CM1900UV, Leica, Germany). Sections were floated onto glass slides and left overnight at room temperature. For cultured cells, after discarding the medium, cells were washed twice with PBS, fixed with precooled 4 % PFA at 4 °C for 10 min, and washed three times with PBS (10 min each) on a shaker. Cells were permeabilized with 0.3 % Triton X-100 in PBS for 20 min, blocked with 5 % donkey serum for 1 h, and incubated overnight at 4 °C with primary antibodies (Iba-1, Rabbit polyclonal, Wako; NeuN, Millipore; GFAP, CST; MBP, Abcam; SMI32, Millipore). The next day, sections were brought to room temperature, washed three times with PBST (PBS + Tween-20), and incubated with secondary antibodies for 1 h in the dark. […] Fluorescence was visualized using a DM4000B microscope and images were captured with a Leica TCS SP8 confocal microscope. […]
(§2) To mimic ischemic conditions, neurons at DIV7 were subjected to OGD. […] The supernatants were collected for subsequent CIRP quantification. […]
Microglia were exposed to 1, 10 100 μM concentrations of TCC or TC and PBS respectively for 24 h, and cell viability was measured. […] Cell viability was assessed using the Cell Counting Kit-8 (C0038, Beyotime) according to the manufacturer’s protocol. Absorbance at 450 nm was measured to determine cell viability.

Assay [2] relates to microglia. The assay can be described thus: Cytokine mRNA and release in CIRP-stimulated microglia (RT-qPCR, ELISA). The format is cell-based, mouse. As to the method:
ELISA was used to quantify CIRP, MD2, IL-6, and TNF-α concentrations in blood and cerebrospinal fluid samples. Samples were processed and stored under standardized conditions to preserve protein integrity. Each target protein was measured using commercial ELISA kits, following the manufacturer’s instructions: Mouse CIRBP ELISA Kit (CSB-EL005440MO, CUSABIO), Mouse TNF-α ELISA Kit (EK282, Lianke Bio), Mouse IL-6 ELISA Kit (CSB-E04639m, CUSABIO), and […].
as §1, with “medium.” for “medium. After 14 days, microglial cells were harvested by shaking the flask at 270–280 rpm for 30 min, and the supernatant was collected.”
as §2

For the next assay, the system named is IL-6Rα. The settings on record: macrophages; cited from earlier work. The text has this:
Previous studies have shown that MD2 binds to a specific 15-amino acid segment of CIRP with high affinity, promoting inflammation. To target this interaction, we designed the peptides TCC and TC using macromolecular docking techniques, with SPR confirming that TCC reduced the binding affinity of CIRP to IL-6Rα.

These results are taken from publication PMC13227277, “Targeting CIRP and IL-6R-mediated microglial inflammation to improve outcomes in intracerebral hemorrhage” (Journal of Advanced Research, 2025).

B1: recombinant human CIRP (cold-inducible RNA-binding protein) (natural protein, UniProt Q14011 1-172, looked up)
chain: MASDEGKLFVGGLSFDTNEQSLEQVFSKYGQISEVVVVKDRETQRSRGFGFVTFENIDDAKDAMMAMNGKSVDGRQIRVDQAGKSSDNRSRGYRGGSAGGRGFFRGGRGRGRGFSRGGGDRGYGGNRFESRSGGYGGSRDYYSSRSQSGGYSDRSSGGSYRDSYDSYATHNE
notes: UniProtKB Q14011 is printed for the docking; also called rhCIRP; human CIRBP; source: recombinant
B1: the “interaction between CIRP and IL-6R” value in the assay with IL-6R is “confirmed a interaction between CIRP and IL-6R”. In addition, the “microglial phagocytosis of RBCs” value in the assay on microglia [1] is “significantly reduced in the CIRP group compared to the PBS group”. The “neuronal morphology and axonal integrity” value with neurons (24-hour co-culture with microglial supernatant, immunofluorescence, n = 4–6) is “altered morphology and reduced axonal integrity”. For the same molecule, in the assay with neurons (microglial supernatant following CIRP with or without TCC, CCK-8, 24 h, n = 3), the neuronal viability result was “impaired neuronal viability”. Moreover, the “TNF-α and IL-6 mRNA in microglia” value in the assay with microglia [2] (24-hour CIRP stimulation with or without TCC, RT-qPCR, n = 3–6) is “upregulated the transcription of pro-inflammatory cytokines TNF-α and IL-6 in microglia”. The “TNF-α secretion by microglia” value in the assay with microglia [2] (rmCIRP 1 μg/mL, 24 h, ELISA, n = 3) is listed as “the secretion of TNF-α was markedly increased”. Also, the “IL-6Rα as receptor for CIRP” value in the assay with IL-6Rα is recorded as “high-affinity receptor for CIRP in macrophages”.
